From paper PMC3826990

Target: His-Nudel^1–201 (UniProt Q9GZM8)
Assay: ITC

Sequence of UniProt Q9GZM8 (Q9GZM8 1-201): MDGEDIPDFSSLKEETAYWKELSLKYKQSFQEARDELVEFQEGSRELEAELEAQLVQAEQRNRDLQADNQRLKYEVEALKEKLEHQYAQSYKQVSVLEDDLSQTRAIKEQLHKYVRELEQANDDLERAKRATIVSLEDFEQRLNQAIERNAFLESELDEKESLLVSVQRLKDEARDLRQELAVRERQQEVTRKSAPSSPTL

Kd [µM]	Substance
0.41	His-tagged Lis1 (from UniProt P43034 1-410) (natural protein)
7.8	His-DIC (natural protein)
